Laboratory results as given in patent US20180346554A1 (University of Pennsylvania, published 2018).

Legend:
Assay in all cases: cell-based or functional assay
[1] = molecular target: Env of the HIV-1 pseudotyped virus Bal26 (clade B, Tier 1) (HIV-1 (clade B, Bal26))
[2] = molecular target: Env of the HIV-1 pseudotyped virus Q23Env17 (clade A, Tier 1) (HIV-1 (clade A, Q23Env17))
[3] = molecular target: Env of the HIV-1 pseudotyped virus SF162S (clade B, Tier 1) (HIV-1 (clade B, SF162S))

B1: HIV-1 Env-Fab (Fab generated from the VRC01 antibody by pHIV-1 Env Fab) (Fab, V domains shown)
VH: QVQLVQSGGQMKKPGESMRISCRASGYEFIDCTLNWIRLAPGKRPEWMGWLKPRGGAVNYARPLQGRVTMTRDVYSDTAFLELRSLTVDDTAVYFCTRGKNCDYNWDFEHWGRGTPVIVSS
VL: QIVLTQSPGTLSLSPGETAIISCRTSQYGSLAWYQQRPGQAPRLVIYSGSTRAAGIPDRFSGSRWGPDYNLTISNLESGDFGVYYCQQYEFFGQGTKVQVDI
[1]
  plateau percent neutralization (TZM-Bl luciferase assay, serum 1:50): ~62%
[2]
  plateau percent neutralization (TZM-Bl luciferase assay, serum 1:50): ~60%
[3]
  plateau percent neutralization (TZM-Bl luciferase assay, serum 1:50): ~70%
